Assay results as given in the supplement of paper PMC10724198.
± gives the standard deviation of the averaged measurements.

Assays:
Saccharomyces cerevisiae [1] = assay: protein stability index of tFT-peptide fusion (C-terminal peptide) (PSI (0-1 scale)); higher = more stable (slower turnover); conditions: genetic background: wild type; temperature: 30 C
Saccharomyces cerevisiae [2] = assay: as above
Experimental: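 MPS profiling in S. cerevisiae of the tFT-X12 degron library: putative degron peptides plus stable controls, 12 aa, fused to the C-terminus of a sfGFP-mCherry timer. Cells are FACS-sorted into 8 mCherry/sfGFP bins and deep-sequenced. PSI runs from 0 (unstable) to 1 (stable). Backgrounds are wild type, das1Δ and doa10Δ at 30 °C, and wild type, das1Δ, cdc34-1 and cdc53-1 at 37 °C; 2-3 technical replicates each.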

[3] = genetic background: cdc34-1, temperature: 37 C
[4] = genetic background: cdc53-1, temperature: 37 C
[5] = genetic background: das1 deletion, temperature: 30 C
[6] = genetic background: das1 deletion, temperature: 37 C
[7] = genetic background: doa10 deletion, temperature: 30 C
[8] = genetic background: wild type, temperature: 30 C
[9] = genetic background: wild type, temperature: 37 C
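Further: PSI is a weighted mean of sequencing reads over stability bins, variants kept only with over 10 reads, mCherry proximal and sfGFP distal, peptide attached via GGGS linker.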

Sequence | protein stability index (Saccharomyces cerevisiae [1]) | protein stability index (Saccharomyces cerevisiae [2]; [3]) | protein stability index (Saccharomyces cerevisiae [2]; [4]) | protein stability index (Saccharomyces cerevisiae [2]; [5]) | protein stability index (Saccharomyces cerevisiae [2]; [6]) | protein stability index (Saccharomyces cerevisiae [2]; [7]) | protein stability index (Saccharomyces cerevisiae [2]; [8]) | protein stability index (Saccharomyces cerevisiae [2]; [9])
HCINYGRIQFCA | 0.388 ± 0.051 | 0.596 ± 0.028 | 0.71 ± 0.05 | 0.596 ± 0.013 | 0.714 ± 0.024 | 0.245 ± 0.012 | 0.253 ± 0.034 | 0.532 ± 0.06
IVVLCHVFLDLG | 0.126 ± 0.03 | 0.048 ± 0.01 | 0.128 ± 0.033 | 0.125 ± 0.048 | 0.222 ± 0.019 | 0.074 ± 0.026 | 0.0933 ± 0.021 | 0.2008 ± 0.00035
RSGGVPGFGRLC | 0.745 ± 0.014 | 0.703 ± 0.033 | 0.7361 ± 0.0064 | 0.661 ± 0.02 | 0.7301 ± 0.003 | 0.658 ± 0.034 | 0.653 ± 0.022 | 0.723 ± 0.037
QFLSLSLPFALF | 0.524 ± 0.036 | 0.7057 ± 0.0026 | 0.763 ± 0.014 | 0.64 ± 0.029 | 0.748 ± 0.054 | 0.428 ± 0.041 | 0.45 ± 0.019 | 0.636 ± 0.052
EFCITAFVSVLT | 0.435 ± 0.012 | 0.452 ± 0.029 | 0.431 ± 0.017 | 0.324 ± 0.033 | 0.483 ± 0.017 | 0.287 ± 0.011 | 0.329 ± 0.025 | 0.462 ± 0.0064
PLGGLVILLLSS | 0.293 ± 0.014 | 0.488 ± 0.017 | 0.541 ± 0.0075 | 0.349 ± 0.028 | 0.548 ± 0.014 | 0.194 ± 0.0033 | 0.224 ± 0.017 | 0.4074 ± 0.00071
IVCFCFFLMFSL | 0.378 ± 0.0077 | 0.319 ± 0.063 | 0.34 ± 0.011 | 0.321 ± 0.021 | 0.417 ± 0.014 | 0.4222 ± 0.0033 | 0.317 ± 0.017 | 0.3766 ± 0.0011
WWGIVIVGGLGC | 0.489 ± 0.051 | 0.526 ± 0.0069 | 0.566 ± 0.019 | 0.423 ± 0.019 | 0.5691 ± 0.00075 | 0.384 ± 0.02 | 0.404 ± 0.011 | 0.564 ± 0.024
IAYCDNGFLVVV | 0.521 ± 0.077 | 0.636 ± 0.037 | 0.676 ± 0.028 | 0.548 ± 0.023 | 0.695 ± 0.019 | 0.539 ± 0.013 | 0.563 ± 0.012 | 0.652 ± 0.012
FFFFSMLIFCAV | 0.191 ± 0.0034 | 0.06041 ± 0.00022 | 0.106 ± 0.025 | 0.156 ± 0.016 | 0.226 ± 0.013 | 0.129 ± 0.01 | 0.136 ± 0.0094 | 0.192 ± 0.0081
ISARPFLYSFRP | 0.0266 ± 0.038 | 0.683 ± 0.01 | 0.7515 ± 0.0074 | 0.643 ± 0.034 | 0.7373 ± 0.0025 | 0.644 ± 0.027 | 0.644 ± 0.041 | 0.71009 ± 0.00017
KICAVRVIMDWC | 0.4769 ± 0.0044 | 0.459 ± 0.059 | 0.542 ± 0.012 | 0.383 ± 0.044 | 0.566 ± 0.017 | 0.351 ± 0.0053 | 0.379 ± 0.018 | 0.564 ± 0.014
RFTCCISLSFLM | 0.489 ± 0.01 | 0.498 ± 0.013 | 0.492 ± 0.044 | 0.467 ± 0.011 | 0.472 ± 0.014 | 0.491 ± 0.059 | 0.489 ± 0.033 | 0.4341 ± 0.0021
SIFSIRRQISFS | 0.418 ± 0.015 | 0.662 ± 0.0077 | 0.743 ± 0.009 | 0.653 ± 0.017 | 0.724 ± 0.012 | 0.327 ± 0.0085 | 0.346 ± 0.014 | 0.5729 ± 0.0022
WRFFLLLFFFGF | 0.465 ± 0.026 | 0.493 ± 0.0066 | 0.536 ± 0.024 | 0.44 ± 0.04 | 0.601 ± 0.045 | 0.425 ± 0.0095 | 0.428 ± 0.024 | 0.531 ± 0.012
VCRFLVSVFSCV | 0.439 ± 0.019 | 0.546 ± 0.042 | 0.548 ± 0.02 | 0.453 ± 0.02 | 0.5763 ± 0.00065 | 0.38 ± 0.024 | 0.399 ± 0.025 | 0.5167 ± 0.0027
SHGKDVLNKINS | 0.319 ± 0.077 | 0.608 ± 0.019 | 0.763 ± 0.045 | 0.633 ± 0.025 | 0.72 ± 0.033 | 0.146 ± 0.0078 | 0.17 ± 0.013 | 0.23 ± 0.036
TSARPFLYSFRP | 0.00961 ± 0.014 | 0.69 ± 0.036 | 0.7386 ± 0.0065 | 0.654 ± 0.018 | 0.739 ± 0.0082 | 0.65 ± 0.016 | 0.642 ± 0.019 | 0.705 ± 0.027
SGVHWFRGNSWG | 0.712 ± 0.0087 | 0.697 ± 0.00077 | 0.749 ± 0.012 | 0.653 ± 0.0093 | 0.74 ± 0.027 | 0.657 ± 0.0087 | 0.646 ± 0.013 | 0.716 ± 0.036
YFLAMFIISGGV | 0.478 ± 0.073 | 0.371 ± 0.032 | 0.435 ± 0.032 | 0.28 ± 0.034 | 0.4798 ± 0.0021 | 0.248 ± 0.011 | 0.263 ± 0.042 | 0.443 ± 0.031

Sequence | protein stability index (Saccharomyces cerevisiae [1]) | protein stability index (Saccharomyces cerevisiae [2]; [3]) | protein stability index (Saccharomyces cerevisiae [2]; [4]) | protein stability index (Saccharomyces cerevisiae [2]; [5]) | protein stability index (Saccharomyces cerevisiae [2]; [6]) | protein stability index (Saccharomyces cerevisiae [2]; [7]) | protein stability index (Saccharomyces cerevisiae [2]; [8]) | protein stability index (Saccharomyces cerevisiae [2]; [9])
LQSVLRGIDCCA | 0.411 ± 0.085 | 0.347 ± 0.0089 | 0.375 ± 0.016 | 0.252 ± 0.053 | 0.467 ± 0.0052 | 0.214 ± 0.0044 | 0.266 ± 0.018 | 0.4341 ± 0.0029
VGLRLSVIFVVI | 0.372 ± 0.038 | 0.265 ± 0.019 | 0.2985 ± 0.0021 | 0.213 ± 0.033 | 0.428 ± 0.027 | 0.195 ± 0.0031 | 0.213 ± 0.027 | 0.391 ± 0.049
AVSFTLVLCSCF | 0.449 ± 0.023 | 0.474 ± 0.025 | 0.489 ± 0.029 | 0.416 ± 0.039 | 0.473 ± 0.023 | 0.389 ± 0.0073 | 0.401 ± 0.019 | 0.444 ± 0.0074
VNTRIVVRMRHL | 0.433 ± 0.014 | 0.638 ± 0.056 | 0.701 ± 0.015 | 0.64 ± 0.014 | 0.704 ± 0.02 | 0.339 ± 0.0049 | 0.348 ± 0.013 | 0.529 ± 0.0082
PFDTPSHPNPLF | 0.744 ± 0.037 | 0.707 ± 0.034 | 0.789 ± 0.086 | 0.69 ± 0.026 | 0.777 ± 0.024 | 0.711 ± 0.026 | 0.729 ± 0.014 | 0.762 ± 0.019
SHTRPPVTAPLH | 0.7165 ± 0.0055 | 0.689 ± 0.026 | 0.7142 ± 0.0027 | 0.646 ± 0.0068 | 0.72895 ± 0.00039 | 0.668 ± 0.033 | 0.654 ± 0.014 | 0.695 ± 0.0075
GTVRGDLSLWLC | 0.349 ± 0.11 | 0.622 ± 0.047 | 0.745 ± 0.0076 | 0.681 ± 0.0076 | 0.765 ± 0.015 | 0.156 ± 0.012 | 0.17 ± 0.031 | 0.274 ± 0.023
GLCSFPCSSCRL | 0.756 ± 0.052 | 0.875 ± 0.023 | 0.8868 ± 0.0025 | 0.76 ± 0.018 | 0.812 ± 0.028 | 0.772 ± 0.024 | 0.772 ± 0.054 | 0.836 ± 0.021
ARRRYEVLAVLV | 0.227 ± 0.0072 | 0.477 ± 0.024 | 0.522 ± 0.025 | 0.459 ± 0.041 | 0.5983 ± 0.0026 | 0.135 ± 0.0081 | 0.149 ± 0.024 | 0.149 ± 0.021
RPALVSIFLSAY | 0.444 ± 0.027 | 0.555 ± 0.018 | 0.567 ± 0.023 | 0.4 ± 0.023 | 0.553 ± 0.0066 | 0.38 ± 0.017 | 0.38 ± 0.021 | 0.532 ± 0.0076
VRGSFRRCLSIA | 0.1981 ± 0.0011 | 0.596 ± 0.011 | 0.713 ± 0.021 | 0.623 ± 0.015 | 0.719 ± 0.012 | 0.118 ± 0.027 | 0.142 ± 0.017 | 0.325 ± 0.011
TCRASLRRIVVA | 0.358 ± 0.034 | 0.514 ± 0.024 | 0.538 ± 0.03 | 0.381 ± 0.031 | 0.5813 ± 0.0056 | 0.222 ± 0.01 | 0.255 ± 0.042 | 0.459 ± 0.015
CLFLVFCFCVCS | 0.498 ± 0.048 | 0.59488 ± 0.00049 | 0.62042 ± 0.00025 | 0.547 ± 0.031 | 0.596 ± 0.077 | 0.534 ± 0.018 | 0.512 ± 0.02 | 0.531 ± 0.032
LFFRCVFRISFF | 0.327 ± 0.0064 | 0.274 ± 0.015 | 0.266 ± 0.0095 | 0.302 ± 0.03 | 0.387 ± 0.006 | 0.351 ± 0.027 | 0.254 ± 0.015 | 0.331 ± 0.0072
TVLPCVLLFLRG | 0.485 ± 0.013 | 0.61 ± 0.026 | 0.632 ± 0.012 | 0.508 ± 0.035 | 0.613 ± 0.0086 | 0.506 ± 0.022 | 0.484 ± 0.037 | 0.603 ± 0.03
PACFPPPSPFAP | 0.44 ± 0.034 | 0.643 ± 0.056 | 0.741 ± 0.026 | 0.712 ± 0.015 | 0.7326 ± 0.0022 | 0.718 ± 0.019 | 0.696 ± 0.029 | 0.725 ± 0.022
ACCLLFSFAFTV | 0.301 ± 0.028 | 0.452 ± 0.026 | 0.5103 ± 0.0014 | 0.32 ± 0.04 | 0.517 ± 0.0016 | 0.187 ± 0.0034 | 0.213 ± 0.029 | 0.4184 ± 0.0027
FIAVSLSVFLVF | 0.234 ± 0.011 | 0.159 ± 0.015 | 0.286 ± 0.0034 | 0.189 ± 0.022 | 0.322 ± 0.012 | 0.1758 ± 0.00094 | 0.181 ± 0.024 | 0.287 ± 0.003
KLLLTCTFLVFP | 0.435 ± 0.0062 | 0.448 ± 0.022 | 0.545 ± 0.024 | 0.37 ± 0.032 | 0.555 ± 0.011 | 0.3361 ± 0.003 | 0.369 ± 0.02 | 0.523 ± 0.018
